Values quoted from earlier work as cited in PMC13142048.

How the values were obtained:
[1] = target: CD226 (DNAM-1) (Homo sapiens) (UniProt Q15762)
[2] = target: TIGIT (Homo sapiens) (UniProt Q495A1)
[3] = target: CD96 (TACTILE) (Homo sapiens) (UniProt P40200)
Chain of UniProt P40200 (P40200 22-519): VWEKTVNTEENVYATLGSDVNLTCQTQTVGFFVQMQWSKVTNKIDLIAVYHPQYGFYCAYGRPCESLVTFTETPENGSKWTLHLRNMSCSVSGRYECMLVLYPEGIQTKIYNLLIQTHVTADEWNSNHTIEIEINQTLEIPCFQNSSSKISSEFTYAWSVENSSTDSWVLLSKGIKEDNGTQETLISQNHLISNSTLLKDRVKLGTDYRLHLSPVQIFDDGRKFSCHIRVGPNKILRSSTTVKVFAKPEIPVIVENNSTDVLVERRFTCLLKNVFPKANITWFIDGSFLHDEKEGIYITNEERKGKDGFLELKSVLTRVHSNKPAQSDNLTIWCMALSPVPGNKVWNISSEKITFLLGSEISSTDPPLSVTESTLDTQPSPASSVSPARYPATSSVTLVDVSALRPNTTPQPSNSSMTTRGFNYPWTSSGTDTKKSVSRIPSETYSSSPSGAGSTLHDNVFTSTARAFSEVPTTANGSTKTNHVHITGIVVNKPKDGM

Chain of UniProt Q495A1 (Q495A1 22-141): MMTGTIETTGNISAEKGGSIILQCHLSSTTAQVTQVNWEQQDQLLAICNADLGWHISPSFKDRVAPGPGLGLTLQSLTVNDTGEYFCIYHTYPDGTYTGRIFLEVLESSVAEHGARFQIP
Chain of UniProt Q15762 (Q15762 19-254): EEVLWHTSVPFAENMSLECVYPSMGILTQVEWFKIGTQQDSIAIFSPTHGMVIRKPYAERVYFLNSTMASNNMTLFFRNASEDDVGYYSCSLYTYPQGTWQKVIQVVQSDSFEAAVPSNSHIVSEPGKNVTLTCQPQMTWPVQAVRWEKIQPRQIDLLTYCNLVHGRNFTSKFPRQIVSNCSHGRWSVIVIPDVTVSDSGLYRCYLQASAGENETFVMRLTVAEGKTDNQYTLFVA

Question: Which Kd [1] does the source give for CD155 (from UniProt P15151) here?
Answer: 119 nM

Question: What about the Kd [2] of the same substance?
Answer: 3.15 nM

Question: And the Kd [3]?
Answer: 37.6 nM
